From patent US20230357428A1
Values joined by “and” are separate entries in the source; they are usually repeats but may differ in a detail not shown here. Equal entries are not always repeated.

Legend:
[1] = target: mix of HLA-A*02/SimPep tetramers (peptides SEQ ID NO: 51 to 59); experiment: yeast display, flow cytometry; 10 nM PRAME-004 monomer (x), SimPep tetramer mix 10 nM each (y)
[2] = target: mix of HLA-A*02/SimPep tetramers (peptides SEQ ID NO: 51 to 59); experiment: yeast display, SimPep tetramer mix, 10 nM each

% cells, upper left quadrant (monomer-, SimPep tetramers+) [1]: 3% | % cells, upper right quadrant (monomer+, SimPep tetramers+) [1]: 0.8% | yeast cells stained positive [2]: 3.3% and 2.5%
B1: stabilized scTCR R11P3D3SD (TCR)
chain: ILNVEQSPQSLHVQEGDSTNFTCSFPSSNFYNLHWYRKETAKSPEFLFYMTSNGDEKKKGRISATLNTKEGYSYLYITDSQPEDSATYLCALYNNNDMRFGAGTRLTVKPGGGGSGGGGSGGGGSGGGGSGGGGSGVIQSPRHLVTEMGQEVTLRCKPISGHNSLFWYRETPMQGLELLIYFNNNEPIDDSGMPEDRFSAKMPNASFSTLKIQPSEPRDSAVYFCASSPGSTDTQYFGPGTRLTVL
